± gives the half width of the 95% confidence interval.
Experiments:
[1] = folding stability dG unfold from trypsin proteolysis; higher = more stable
Method in brief: (§1)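 Bayesian fitting of sequencing counts gave K50 for each design. Unfolding free energy followed by setting this against a sequence-predicted unfolded-state K50 and a shared folded-state K50, either per protease or with trypsin and chymotrypsin combined. The designs, under 80 residues and lacking cysteine, were digested in a PA-tagged cDNA display format at 11 threefold-diluted protease concentrations and without protease, and only those with AlphaFold2 dimer inter-PAE above 15 were kept.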

[2] = folding stability dG unfold from chymotrypsin proteolysis; higher = more stable
Method in brief: as §1

[3] = folding stability dG unfold (combined trypsin and chymotrypsin); higher = more stable
Method in brief: as §1

| Sequence | folding stability dG unfold [1] | folding stability dG unfold [2] | folding stability dG unfold [3] |
| --- | --- | --- | --- |
| SAGGSAGGSMSPEEAKKLAEELAKKLGLEKVEIVEIKVEVDEETNEIKVTIYIRGKDGKWYKLSAGGSAGGS [r12_508_TrROS_Hall] | 3.48 ± 0.18 kcal/mol | 4.2 ± 0.07 kcal/mol | 3.96 ± 0.074 kcal/mol |
| SAGGSAGGSAGEKVIRFPFKSPEEIREHIKNGRPIRFPNGKPVKITKIQPYPNGWLWITVSAGGSAGGSAGG [r11_48_TrROS] | 0.89 ± 0.05 kcal/mol | 1.3 ± 0.12 kcal/mol | 1.12 ± 0.21 kcal/mol |
| SAGGSASVTTTVTLPNGEVVTITFDPANPTTATLSFPDGTTVTLSFSSPEEALARAIEELLAGKPLSAGGSA [r15_38_JUSTAS] | 2.99 ± 0.1 kcal/mol | 2.01 ± 0.056 kcal/mol | 2.48 ± 0.081 kcal/mol |
| SAGGMKIKLKDGSEITIGSEPGRLVIVLRPPGPRSRKVIPFPVPSKEHGFVAAVNELLSLEDIEEIEPSAGG [r13_579_TrMRF] | 0.379 ± 0.11 kcal/mol | 1.34 ± 0.077 kcal/mol | 1.15 ± 0.2 kcal/mol |
| SAGGEISPEDIKELEIYPIPPEDAQKNGYIMIEIKGPGGKPIAQIMIPVRVPKVKDKDGKPMDLEDMNSAGG [r13_864_TrROS] | 1.13 ± 0.044 kcal/mol | 1.6 ± 0.07 kcal/mol | 1.32 ± 0.22 kcal/mol |
| SAGGSAGGSKKVEIKVKVKITNENGETLEVTATIVFDEKTGELYIYDEKTGKVYKISLDDIEPSAGGSAGGS [r12_772_TrROS_Hall] | 2.03 ± 0.082 kcal/mol | 3.94 ± 0.077 kcal/mol | 3.53 ± 0.09 kcal/mol |
| SMTVVIDIPPEVPVPGSGSVRPVPVEEVLKRVEEAMAKGKKVVVTGRDPKHPLVQEVAARLEELGVEVVGSA [r9_468_JUSTAS] | 0.342 ± 0.029 kcal/mol | 0.71 ± 0.016 kcal/mol | 0.59 ± 0.054 kcal/mol |
| SAGGSAGGSAGGPKIEVNEDGTVTITLEVDGKLVTKTVKVELEAPPVETVEFVKEGEEVSAGGSAGGSAGGS [r10_240_TrROS_Hall] | 0.822 ± 0.043 kcal/mol | 1.21 ± 0.046 kcal/mol | 1.02 ± 0.077 kcal/mol |
| SAGGSSKTEIYYNPKKPYFLIKVTYKNGKTKEYPIKGKGMSLEELKKKAEEIVKELNSEEFKEVVFNPSAGG [r13_267_TrMRF] | 2.02 ± 0.12 kcal/mol | 2.5 ± 0.082 kcal/mol | 2.53 ± 0.14 kcal/mol |
| SAGGSAGGSWMYKKNPDGKLEPLPPIRPVPIKIPVPINGRWIPVPIWMTVADIDYIIKEFLKNSAGGSAGGS [r20_148_TrROS] | 1.48 ± 0.042 kcal/mol | 0.785 ± 0.15 kcal/mol | 1.41 ± 0.15 kcal/mol |
| SAGPNKPYKIRVSIMHPGKWREHEIDIDPGEDIEEALDEIMDKLPPNWMIMIHYANGEMIMIPIPPEMISAG [r5_77_TrROS] | 1.72 ± 0.097 kcal/mol | 2.18 ± 0.086 kcal/mol | 2.11 ± 0.16 kcal/mol |
| SAGGSAKKTIKITIEVDGKTIEITKITVNENGEVTIEVKITNKNGKETKTIKITMTVEELKALLKSSAGGSA [r15_56_TrROS_Hall] | 1.63 ± 0.042 kcal/mol | 2.55 ± 0.081 kcal/mol | 2.18 ± 0.095 kcal/mol |
| SAGGSAGGSAGGKKYKIKVYVKDKKTKKWKKIKEIEVDTKEEALEAIKKLPPNYEVKIVPSAGGSAGGSAGG [r7_307_TrROS_Hall] | 4.11 ± 0.14 kcal/mol | 5.04 ± 0.068 kcal/mol | 4.91 ± 0.14 kcal/mol |
| SAGGSAGGSAGGEPIPTKTIEVDEATGTVTVTVTFPPPNETVTVTRPAPPDVSLEEVLASAGGSAGGSAGGS [r10_676_JUSTAS] | 1.07 ± 0.17 kcal/mol | 1.58 ± 0.15 kcal/mol | 1.59 ± 0.15 kcal/mol |
| SAGGSAMKKTITVTLSYPETGETRTVTVELTDIPESDPEKWKALAEEVAEALAKERGAEVLGIEISSAGGSA [r15_1013_JUSTAS] | 4.9 ± 0.14 kcal/mol | 4.6 ± 0.066 kcal/mol | 4.72 ± 0.065 kcal/mol |
| SAGGSAGGSAGGPITSIDTSGPVITVTATTPGGSVTMDVPPDLTLEEVEALLKANPELLNSAGGSAGGSAGG [r7_373_JUSTAS] | 1.41 ± 0.072 kcal/mol | -0.265 ± 0.12 kcal/mol | 0.788 ± 0.087 kcal/mol |
| SAGGSAMTITVTEETDPNTDRKTTTVSLSPGVSEEVLEELKAEAEKKGAKLTVYPEEGVVTVVTPESAGGSA [r15_542_JUSTAS] | 0.0631 ± 0.052 kcal/mol | 0.311 ± 0.065 kcal/mol | 0.224 ± 0.17 kcal/mol |
| SAGGSAGGSEFYVIKIKNPETKKEIELVFEGSEEEIKAAIEELAKKPNLKIEIKKIKVSKEELSAGGSAGGS [r12_92_TrROS_Hall] | 1.43 ± 0.085 kcal/mol | 1.78 ± 0.074 kcal/mol | 1.89 ± 0.18 kcal/mol |
| SAMLEEVEERAREIAERLREEYPDVEEFTVELELPLPDGRFLRVTVTIRRERDDEGDTFEVEVDVEEVDSAG [r14_788_TrMRF] | 3.47 ± 0.13 kcal/mol | 4.91 ± 0.13 kcal/mol | 4.46 ± 0.095 kcal/mol |
| SAGGEEKVITKEETITVPPDAGTITISSNEVIKDPNSSYTYYVKESKTVSRDPNSNVYTITLKIKVEKSAGG [r13_574_JUSTAS] | -0.0992 ± 0.12 kcal/mol | 0.917 ± 0.43 kcal/mol | 0.647 ± 0.33 kcal/mol |
| AAPEGAVVTFDDKEITVAPDETLYLVNGKLYTKSEIPAVLKQLSPETEYTELTVAGDTGEVETETKHIYRPS [r1_304_JUSTAS] | 0.867 ± 0.097 kcal/mol | 1.51 ± 0.12 kcal/mol | 1.25 ± 0.14 kcal/mol |

— the supplement of paper PMC12764529
